Reference: patent publication US20150225704A1 (UNIVERSITY OF BRITISH COLUMBIA, published 2015)

B3: GFP-JNK3 (c-jun N-terminal kinase 3) expressed in HEK293 cells (enzyme, UniProt P53779 1-464, looked up)
chain: MSLHFLYYCSEPTLDVKIAFCQGFDKQVDVSYIAKHYNMSKSKVDNQFYSVEVGDSTFTVLKRYQNLKPIGSGAQGIVCAAYDAVLDRNVAIKKLSRPFQNQTHAKRAYRELVLMKCVNHKNIISLLNVFTPQKTLEEFQDVYLVMELMDANLCQVIQMELDHERMSYLLYQMLCGIKHLHSAGIIHRDLKPSNIVVKSDCTLKILDFGLARTAGTSFMMTPYVVTRYYRAPEVILGMGYKENVDIWSVGCIMGEMVRHKILFPGRDYIDQWNKVIEQLGTPCPEFMKKLQPTVRNYVENRPKYAGLTFPKLFPDSLFPADSEHNKLKASQARDLLSKMLVIDPAKRISVDDALQHPYINVWYDPAEVEAPPPQIYDKQLDEREHTIEEWKELIYKEVMNSEEKTKNGVVKGQPSPSGAAVNSSESLPPSSSVNDISSMSTDQTLASDTDSSLEASAGPLGCCR
notes: not shown: GFP tag and linker of the gifted construct (Song et al. 2006)

Key:
[1] = biological target: T1, myc-tagged full-length palmitoyl acyl transferase zinc-finger DHHC type containing 17 (zD17) (UniProt Q8IUH5 1-632); assay: co-immunoprecipitation, HEK293 cells
T1 construct: range 1-632; Expressed in HEK293 cells (myc-zD17) or purified from E. coli as GST-myc-zD17 and freed of GST with thrombin; also called myc-zD17; zD17 wildtype
T1 sequence (Q8IUH5 whole entry): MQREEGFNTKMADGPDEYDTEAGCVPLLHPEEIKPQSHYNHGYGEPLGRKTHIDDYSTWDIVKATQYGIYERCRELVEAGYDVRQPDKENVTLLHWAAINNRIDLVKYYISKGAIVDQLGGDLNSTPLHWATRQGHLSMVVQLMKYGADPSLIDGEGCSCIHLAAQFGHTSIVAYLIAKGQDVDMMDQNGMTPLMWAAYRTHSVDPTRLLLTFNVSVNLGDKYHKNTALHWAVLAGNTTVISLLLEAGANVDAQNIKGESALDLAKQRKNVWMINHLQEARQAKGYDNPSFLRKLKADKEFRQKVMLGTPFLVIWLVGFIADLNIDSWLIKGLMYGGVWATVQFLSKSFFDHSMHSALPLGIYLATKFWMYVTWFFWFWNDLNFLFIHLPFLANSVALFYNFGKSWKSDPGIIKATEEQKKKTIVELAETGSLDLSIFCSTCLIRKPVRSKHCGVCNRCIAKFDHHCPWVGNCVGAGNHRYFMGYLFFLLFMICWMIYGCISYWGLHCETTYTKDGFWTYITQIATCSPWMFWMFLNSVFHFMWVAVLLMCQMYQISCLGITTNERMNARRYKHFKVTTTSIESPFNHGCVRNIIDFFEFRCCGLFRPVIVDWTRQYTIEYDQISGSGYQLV
Procedure: (§1) For co-immunoprecipitation, cultured cells were washed with ice-cold PBS followed by incubation with 0.5 ml Gentle Lysis Buffer (GLB) containing 25 mM Tris-HCl (pH 7.4), 2 mM EDTA, 1 mM EGTA, 10 mM NaCl, 0.5% Triton X-100 and 10% Glycerol supplemented with the Complete Protease Inhibitor Tablets (Roche Applied Science™, Indianapolis, Ind., USA) and 1 mM PMSF. Total protein concentration was determined with the BioRad™ Protein Assay kit. Lysates were first precleaned by incubating with Protein A-Sepharose beads (Roche Applied Science™) for 1 h at 4° C., followed by incubation with indicated antibodies (>16 h at 4° C.) and protein A Sepharose bead (2 h at 4° C.). Lysates of rat brain tissues were precleaned with IgG and protein A-beads. […] The relative intensities of the bands on immunoblots were analyzed and quantified using Image J™ (NIH).

[2] = biological target: T2, endogenous zD17 of rat cortical neuronal cultures and rat brain (rat, UniProt E9PTT0 1-622); assay: co-immunoprecipitation, neuronal cultures treated with IL-1β (10 ng/ml, 16 h)
T2 construct: Co-immunoprecipitated from lysates of Wistar rat cortical cultures or Sprague-Dawley rat brain
T2 sequence (E9PTT0 whole entry): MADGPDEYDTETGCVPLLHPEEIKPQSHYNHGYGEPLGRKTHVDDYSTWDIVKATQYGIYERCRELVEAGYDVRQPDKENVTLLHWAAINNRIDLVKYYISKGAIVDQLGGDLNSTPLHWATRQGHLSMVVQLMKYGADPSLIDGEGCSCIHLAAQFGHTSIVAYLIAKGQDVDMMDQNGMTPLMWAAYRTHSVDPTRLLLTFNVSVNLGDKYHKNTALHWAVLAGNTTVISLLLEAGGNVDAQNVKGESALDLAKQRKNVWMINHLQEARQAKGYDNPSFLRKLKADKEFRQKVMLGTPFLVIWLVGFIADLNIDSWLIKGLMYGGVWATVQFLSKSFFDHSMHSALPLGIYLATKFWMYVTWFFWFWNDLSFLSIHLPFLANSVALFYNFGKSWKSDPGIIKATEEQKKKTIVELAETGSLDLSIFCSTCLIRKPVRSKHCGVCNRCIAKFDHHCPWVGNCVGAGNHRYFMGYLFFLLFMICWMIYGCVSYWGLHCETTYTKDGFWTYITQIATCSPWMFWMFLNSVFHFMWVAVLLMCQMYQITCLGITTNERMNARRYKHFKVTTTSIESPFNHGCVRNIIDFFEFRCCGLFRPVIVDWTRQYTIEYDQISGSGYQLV
Procedure: as §1

[3] = biological target: T2, endogenous zD17 of rat cortical …; assay: co-immunoprecipitation, neuronal cultures treated with NMDA
[4] = biological target: T2, endogenous zD17 of rat cortical …; assay: co-immunoprecipitation, neuronal cultures treated with glutamate
[5] = biological target: T2, endogenous zD17 of rat cortical …; assay: co-immunoprecipitation, neuronal cultures treated with TNF-α (50 ng/ml, 6 h)
Procedure: as §1

FLAG-MKK7 wt = biological target: T3, FLAG-MKK7 wt (UniProt O14733 1-419, limits assumed); assay: co-immunoprecipitation, with against without zD17
T3 construct: Bought from Addgene; also called MKK7 wildtype; not shown: FLAG tag
T3 sequence (looked up): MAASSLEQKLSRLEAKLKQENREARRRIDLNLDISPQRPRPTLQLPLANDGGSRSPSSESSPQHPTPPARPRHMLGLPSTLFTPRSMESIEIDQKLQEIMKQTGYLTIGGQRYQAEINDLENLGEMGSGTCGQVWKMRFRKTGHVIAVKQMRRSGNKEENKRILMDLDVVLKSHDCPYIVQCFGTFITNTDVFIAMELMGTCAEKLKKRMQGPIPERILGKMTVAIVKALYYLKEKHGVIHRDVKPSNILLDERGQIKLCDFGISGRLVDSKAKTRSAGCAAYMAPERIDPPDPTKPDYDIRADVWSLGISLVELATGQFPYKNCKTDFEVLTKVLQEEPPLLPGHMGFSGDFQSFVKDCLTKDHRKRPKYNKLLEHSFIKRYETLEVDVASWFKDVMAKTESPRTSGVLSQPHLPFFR

[6] = biological target: B3; assay: co-immunoprecipitation, HEK293 cells
Procedure: as §1

B1: FLAG-MKK6 (enzyme, UniProt P52564 1-334, looked up)
chain: MSQSKGKKRNPGLKIPKEAFEQPQTSSTPPRDLDSKACISIGNQNFEVKADDLEPIMELGRGAYGVVEKMRHVPSGQIMAVKRIRATVNSQEQKRLLMDLDISMRTVDCPFTVTFYGALFREGDVWICMELMDTSLDKFYKQVIDKGQTIPEDILGKIAVSIVKALEHLHSKLSVIHRDVKPSNVLINALGQVKMCDFGISGYLVDSVAKTIDAGCKPYMAPERINPELNQKGYSVKSDIWSLGITMIELAILRFPYDSWGTPFQQLKQVVEEPSPQLPADKFSAEFVDFTSQCLKKNSKERPTYPELMQHPFFTLHESKGTDVASFVKLILGD
notes: Bought from Addgene; not shown: FLAG tag
[1]
  binding result: no binding

B2: endogenous JNK3 of rat cortical neuronal cultures and rat brain (enzyme, UniProt P49187 1-464, looked up)
chain: MSLHFLYYCSEPTLDVKIAFCQGFDKHVDVSSVVKHYNMSKSKVDNQFYSVEVGDSTFTVLKRYQNLKPIGSGAQGIVCAAYDAVLDRNVAIKKLSRPFQNQTHAKRAYRELVLMKCVNHKNIISLLNVFTPQKTLEEFQDVYLVMELMDANLCQVIQMELDHERMSYLLYQMLCGIKHLHSAGIIHRDLKPSNIVVKSDCTLKILDFGLARTAGTSFMMTPYVVTRYYRAPEVILGMGYKENVDIWSVGCIMGEMVRHKILFPGRDYIDQWNKVIEQLGTPCPEFMKKLQPTVRNYVENRPKYAGLTFPKLFPDSLFPADSEHNKLKASQARDLLSKMLVIDPAKRISVDDALQHPYINVWYDPAEVEAPPPQIYDKQLDEREHTIEEWKELIYKEVMNSEEKTKNGVVKGQPSPSGAAVNSSESLPPSSSVNDISSMSTDQTLASDTDSSLEASAGPLGCCR
[2]
  fold increase of zD17-JNK3 interaction against control: 1.88 fold
[3]
  fold increase of zD17 interaction compared with control: 2.5 fold
[4]
  fold increase of zD17 interaction compared with control: 2.6 fold
[5]
  fold increase of zD17-JNK3 interaction against control: 1.53 fold

## B3
FLAG-MKK7 wt
  fold enhancement of the JNK3-MKK7 association in the presence of zD17: 2.41 fold

B4: zD20 (palmitoyl acyl transferase) expressed in HEK293 cells (enzyme, UniProt Q5W0Z9 1-365, looked up)
chain: MAPWTLWRCCQRVVGWVPVLFITFVVVWSYYAYVVELCVFTIFGNEENGKTVVYLVAFHLFFVMFVWSYWMTIFTSPASPSKEFYLSNSEKERYEKEFSQERQQEILRRAARALPIYTTSASKTIRYCEKCQLIKPDRAHHCSACDSCILKMDHHCPWVNNCVGFSNYKFFLLFLLYSLLYCLFVAATVLEYFIKFWTNELTDTRAKFHVLFLFFVSAMFFISVLSLFSYHCWLVGKNRTTIESFRAPTFSYGPDGNGFSLGCSKNWRQVFGDEKKYWLLPIFSSLGDGCSFPTRLVGMDPEQASVTNQNEYARSSGSNQPFPIKPLSESKNRLLDSESQWLENGAEEGIVKSGTNNHVTVAIEN
notes: Immunoprecipitated like myc-zD17
[6]
  binding result: no binding

B5: endogenous JNK1 of rat cortical neuronal cultures (enzyme, UniProt P49185 1-411, looked up)
chain: MSRSKRDNNFYSVEIADSTFTVLKRYQNLKPIGSGAQGIVCAAYDAILERNVAIKKLSRPFQNQTHAKRAYRELVLMKCVNHKNIIGLLNVFTPQKSLEEFQDVYIVMELMDANLCQVIQMELDHERMSYLLYQMLCGIKHLHSAGIIHRDLKPSNIVVKSDCTLKILDFGLARTAGTSFMMTPYVVTRYYRAPEVILGMGYKENVDLWSVGCIMGEMVCLKILFPGRDYIDQWNKVIEQLGTPCPEFMKKLQPTVRTYVENRPKYAGYSFEKLFPDVLFPADSEHNKLKASQARDLLSKMLVIDASKRISVDEALQHPYINVWYDPSEAEAPPPKIPDKQLDEREHTIEEWKELIYKEVMDLEERTKNGVIRGQPSPLGAAVINGSQHPVSSPSVNDMSSMSTDPTLASD
[4]
  fold increase of zD17 interaction compared with control: 1.4 fold

B6: zD15 (palmitoyl acyl transferase) expressed in HEK293 cells (enzyme, UniProt Q96MV8 1-337, looked up)
chain: MRRGWKMALSGGLRCCRRVLSWVPVLVIVLVVLWSYYAYVFELCLVTVLSPAEKVIYLILYHAIFVFFTWTYWKSIFTLPQQPNQKFHLSYTDKERYENEERPEVQKQMLVDMAKKLPVYTRTGSGAVRFCDRCHLIKPDRCHHCSVCAMCVLKMDHHCPWVNNCIGFSNYKFFLQFLAYSVLYCLYIATTVFSYFIKYWRGELPSVRSKFHVLFLLFVACMFFVSLVILFGYHCWLVSRNKTTLEAFCTPVFTSGPEKNGFNLGFIKNIQQVFGDKKKFWLIPIGSSPGDGHSFPMRSMNESQNPLLANEETWEDNEDDNQDYPEGSSSLAVETET
notes: as for B4
[6]
  binding result: no binding
